Reference: US20170281764A1 (JN BIOSCIENCES, published 2017)

How the values were obtained:
Experiment in all cases: flow cytometry titration on CHO-K1 cells transiently expressing the HA-tagged TIGIT mutant, Alexa488 anti-human IgG detection, four-parameter fit of percent of control, nM is from the concentration axis and paragraph 252
Y92A = molecular target: T1, Y92A
T1 construct: also called HA-tagged human TIGIT with mutation Y92A, on CHO-K1 cells
T1 single chain: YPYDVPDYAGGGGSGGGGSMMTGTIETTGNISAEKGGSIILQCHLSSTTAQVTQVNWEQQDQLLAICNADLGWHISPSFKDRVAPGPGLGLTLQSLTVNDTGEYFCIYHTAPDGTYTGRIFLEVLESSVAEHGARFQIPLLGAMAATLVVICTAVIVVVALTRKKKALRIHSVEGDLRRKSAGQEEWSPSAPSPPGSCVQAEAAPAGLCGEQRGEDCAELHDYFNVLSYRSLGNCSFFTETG
Experimental: (§1) For flow cytometry analysis of the anti-hTIGIT antibody binding epitope, HA-tagged human TIGIT proteins with or without single amino acid mutation were transiently transfected into CHO-K1 cells. After 24 hr, transfected cells were suspended in HBSS buffer (Thermo Fisher Scientific, Cat#14175095), and incubated with HuTIG1-IgG1.AA antibody at varying concentrations in 50 μL volume. After 1 hr incubation at 4° C., cells were washed and a second incubation with 50 μL Alexa488 conjugated anti-human IgG(H+L) secondary antibody (Thermo Fisher Scientific, Cat#A-11013) was performed to detect cells bound by antibody. Cells were incubated with an anti-HA antibody (Sigma, Cat# H7411) as a positive control, and non-transfected CHO-K1 cells were used as a negative control. The cells were analyzed on an Attune NxT Cytometer (Thermo Fisher Scientific) and the data were processed using FlowJo software. For each mutant, the saturating antibody binding MFI (mean fluorescence intensity) were normalized to 100% POC (percent of control), and no primary antibody binding control MFI were normalized to 0% POC. Data were then fit to a four parameter non-linear sigmoidal curve using GraphPad Prism 7 curve fitting using following formula: Y=Bottom+(Top−Bottom)/(1+10^{((Log EC}^₅₀^{-X)*HillSlope)}).
(§2) All of these residues co-locate to one discrete region on the front ([…] structure of the TIGIT IgV extracellular domain (FIG. 28).

E39A = molecular target: T2, E39A
T2 construct: also called HA-tagged human TIGIT with mutation E39A, on CHO-K1 cells
T2 single chain: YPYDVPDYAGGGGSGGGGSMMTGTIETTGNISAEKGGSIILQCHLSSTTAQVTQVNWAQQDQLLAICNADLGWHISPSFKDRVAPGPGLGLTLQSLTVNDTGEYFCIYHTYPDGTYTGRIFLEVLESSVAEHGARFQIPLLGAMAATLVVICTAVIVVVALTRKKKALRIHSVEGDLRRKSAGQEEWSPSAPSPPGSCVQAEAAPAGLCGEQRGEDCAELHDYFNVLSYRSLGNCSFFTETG
Experimental: as §1, §2

[1] = molecular target: T3, HA-tagged human TIGIT with mutation D51A, on CHO-K1 cells (human, UniProt Q495A1 22-244)
T3 construct: Built as for m17
T3 sequence: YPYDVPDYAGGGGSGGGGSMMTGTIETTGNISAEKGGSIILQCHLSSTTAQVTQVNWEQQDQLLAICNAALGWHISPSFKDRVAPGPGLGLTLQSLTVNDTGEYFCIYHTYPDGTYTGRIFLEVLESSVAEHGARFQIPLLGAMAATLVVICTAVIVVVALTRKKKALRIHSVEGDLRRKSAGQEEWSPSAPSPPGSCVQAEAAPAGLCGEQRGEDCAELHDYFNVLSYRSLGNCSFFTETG
Experimental: as §1, §2

L52A = molecular target: T4, L52A
T4 construct: also called HA-tagged human TIGIT with mutation L52A, on CHO-K1 cells
T4 single chain: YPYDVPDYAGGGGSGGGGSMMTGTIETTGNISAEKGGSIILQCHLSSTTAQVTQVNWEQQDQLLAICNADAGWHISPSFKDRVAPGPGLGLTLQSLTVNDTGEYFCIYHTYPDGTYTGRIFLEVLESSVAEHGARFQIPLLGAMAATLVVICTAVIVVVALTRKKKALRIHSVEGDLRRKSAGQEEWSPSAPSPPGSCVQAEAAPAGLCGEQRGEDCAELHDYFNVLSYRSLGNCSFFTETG
Experimental: as §1, §2

I88A = molecular target: T5, I88A
T5 construct: also called HA-tagged human TIGIT with mutation I88A, on CHO-K1 cells
T5 single chain: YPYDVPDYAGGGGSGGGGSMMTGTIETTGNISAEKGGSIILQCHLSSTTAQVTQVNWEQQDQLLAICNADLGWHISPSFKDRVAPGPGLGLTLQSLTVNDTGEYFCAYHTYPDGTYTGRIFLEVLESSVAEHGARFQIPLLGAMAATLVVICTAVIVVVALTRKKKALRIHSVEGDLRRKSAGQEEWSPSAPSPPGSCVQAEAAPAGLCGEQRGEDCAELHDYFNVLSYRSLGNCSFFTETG
Experimental: as §1, §2

[2] = molecular target: T6, HA-tagged human TIGIT with mutation N37A, on CHO-K1 cells (human, UniProt Q495A1 22-244)
T6 construct: Built as for m17
T6 sequence: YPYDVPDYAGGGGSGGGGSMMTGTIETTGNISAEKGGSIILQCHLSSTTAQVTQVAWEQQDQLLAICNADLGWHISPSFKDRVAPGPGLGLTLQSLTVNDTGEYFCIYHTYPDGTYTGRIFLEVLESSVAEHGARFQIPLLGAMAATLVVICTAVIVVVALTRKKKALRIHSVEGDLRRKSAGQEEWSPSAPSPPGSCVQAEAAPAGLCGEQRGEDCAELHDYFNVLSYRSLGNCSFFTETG
Experimental: as §1, §2

B1: HuTIG1-IgG1.AA (humanized IgG1/kappa form of TIG1, L234A/L235A) (antibody)
heavy: not shown
light: DIQMTQSPSSLSASVGDRVTITCRASKSISKYLAWYQQKPGKAPKLLIYSGSTLQSGVPSRFSGSGSGTDFTLTISSLQPEDFATYYCQQHNEYPWTFGGGTKVEIKRTVAAPSVFIFPPSDEQLKSGTASVVCLLNNFYPREAKVQWKVDNALQSGNSQESVTEQDSKDSTYSLSSTLTLSKADYEKHKVYACEVTHQGLSSPVTKSFNRGEC
notes: Mature full chains; also called humanized TIG1
EC50 (Y92A): 2.12 nM
EC50 (E39A): 1.58 nM
EC50 [1]: 30.5 nM
EC50 (L52A): 2.67 nM
EC50 (I88A): 0.591 nM
EC50 [2]: 126 nM
